{"source": "paper PMC8794802", "binders": {"B1": {"name": "CDC8 (cdc8-FL, 61 nt) (ssRNA)", "RNA": "GUCAAUCACGAUUGUAGACGUUACUAAUAAGGGCAUUCAGGAAGUUGAAGCGCUUAUUUGG"}}, "assay_in_all_cases": "EMSA", "key": {"[1]": {"molecular_target": "T1, Pus1 (Saccharomyces cerevisiae, UniProt Q12211 1-544)", "T1 sequence": "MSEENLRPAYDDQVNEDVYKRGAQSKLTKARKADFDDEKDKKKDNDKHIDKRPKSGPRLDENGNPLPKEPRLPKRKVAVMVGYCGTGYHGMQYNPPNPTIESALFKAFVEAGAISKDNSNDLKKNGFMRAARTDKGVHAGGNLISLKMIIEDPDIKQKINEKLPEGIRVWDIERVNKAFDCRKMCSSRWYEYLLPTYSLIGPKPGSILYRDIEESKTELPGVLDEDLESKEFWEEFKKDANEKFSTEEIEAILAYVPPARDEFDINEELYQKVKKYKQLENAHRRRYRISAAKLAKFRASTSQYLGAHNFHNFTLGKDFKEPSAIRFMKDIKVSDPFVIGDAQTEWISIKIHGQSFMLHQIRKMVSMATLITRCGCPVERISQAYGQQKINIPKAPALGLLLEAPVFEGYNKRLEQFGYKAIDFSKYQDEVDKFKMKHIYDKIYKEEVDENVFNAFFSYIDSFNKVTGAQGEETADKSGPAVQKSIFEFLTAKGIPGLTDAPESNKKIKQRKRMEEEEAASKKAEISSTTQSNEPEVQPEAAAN"}, "[2]": {"molecular_target": "T2, Pus7 D256A (Saccharomyces cerevisiae, UniProt Q08647 1-676, D256A)", "T2 sequence": "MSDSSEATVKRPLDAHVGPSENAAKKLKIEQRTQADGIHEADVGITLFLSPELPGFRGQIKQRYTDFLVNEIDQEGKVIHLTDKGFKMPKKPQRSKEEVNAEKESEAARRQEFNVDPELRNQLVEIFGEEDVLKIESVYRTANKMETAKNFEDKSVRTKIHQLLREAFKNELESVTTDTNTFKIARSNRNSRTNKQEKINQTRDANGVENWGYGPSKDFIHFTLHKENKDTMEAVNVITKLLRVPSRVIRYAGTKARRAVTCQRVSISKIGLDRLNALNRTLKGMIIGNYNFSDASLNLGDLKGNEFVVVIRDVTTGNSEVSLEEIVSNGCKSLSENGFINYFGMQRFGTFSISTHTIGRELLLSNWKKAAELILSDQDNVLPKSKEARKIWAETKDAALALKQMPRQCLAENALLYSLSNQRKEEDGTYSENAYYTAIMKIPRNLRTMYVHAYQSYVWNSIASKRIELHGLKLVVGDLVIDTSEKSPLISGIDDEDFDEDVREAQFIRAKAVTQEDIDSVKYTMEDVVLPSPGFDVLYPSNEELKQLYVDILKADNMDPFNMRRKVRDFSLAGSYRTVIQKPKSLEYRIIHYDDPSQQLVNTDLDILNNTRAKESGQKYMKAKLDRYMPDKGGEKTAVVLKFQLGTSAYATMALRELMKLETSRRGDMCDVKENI"}, "[3]": {"molecular_target": "T3, Pus7 D256A/F307A (Saccharomyces cerevisiae, UniProt Q08647 1-676, D256A;F307A)", "T3 sequence": "T2 sequence with F307A"}}, "note": "Positions count from the first letter of the chain named."}
{"binder": "B1", "values": [{"measurement": "binding result", "setting": "[1]", "value": "binds"}, {"measurement": "Kd", "setting": "[2]", "value": "60 ± 15", "unit": "nM"}, {"measurement": "Kd", "setting": "[3]", "value": "340 ± 170", "unit": "nM"}]}
